Data taken from the supplement of paper PMC11246515.
± gives the standard deviation of the averaged measurements.

Test: total protein half-life in vivo (active degradation + dilution); higher = more stable protein
[1] = E. coli NCM3722 delta-hslV, growth: N-lim chemostat, doubling time 6 h
[2] = E. coli NCM3722 delta-smpB, growth: N-lim chemostat, doubling time 6 h
[3] = wild type E. coli NCM3722, growth: C-lim chemostat, doubling time 3 h
[4] = wild type E. coli NCM3722, growth: C-lim chemostat, doubling time 6 h
[5] = wild type E. coli NCM3722, growth: C-lim chemostat, doubling time 12 h
[6] = wild type E. coli NCM3722, growth: N-lim chemostat, doubling time 6 h
[7] = wild type E. coli NCM3722, growth: P-lim chemostat, doubling time 12 h
[8] = E. coli NCM3722 delta-clpP delta-lon delta-hslV, growth: N-lim chemostat, doubling time 6 h
[9] = wild type E. coli NCM3722, growth: N-lim chemostat, doubling time 12 h
[10] = wild type E. coli NCM3722, growth: P-lim chemostat, doubling time 6 h
[11] = E. coli NCM3722 delta-clpP, growth: N-lim chemostat, doubling time 6 h
[12] = E. coli NCM3722 delta-lon, growth: N-lim chemostat, doubling time 6 h

Row | Sequence | total protein half-life in vivo [1] [h] | total protein half-life in vivo [2] [h] | total protein half-life in vivo [3] [h] | total protein half-life in vivo [4] [h] | total protein half-life in vivo [5] [h] | total protein half-life in vivo [6] [h] | total protein half-life in vivo [7] [h] | total protein half-life in vivo [8] [h] | total protein half-life in vivo [9] [h] | total protein half-life in vivo [10] [h] | total protein half-life in vivo [11] [h] | total protein half-life in vivo [12] [h]
1 | MKKLTIGLIGNPNSGKTTLFNQLTGSRQRVGNWAGVTVERKEGQFSTTDHQVTLVDLPGTYSLTTISSQTSLDEQIACHYILSGDADLLINVVDASNLERNLYLTLQLLELGIPCIVALNMLDIAEKQNIRIEIDALSARLGCPVIPLVSTRGRGIEALKLAIDRYKANENVELVHYAQPLLNEADSLAKVMPSDIPLKQRRWLGLQMLEGDIYSRAYAGEASQHLDAALARLRNEMDDPALHIADARYQCIAAICDVVSNTLTAEPSRFTTAVDKIVLNRFLGLPIFLFVMYLMFLLAINIGGALQPLFDVGSVALFVHGIQWIGYTLHFPDWLTIFLAQGLGGGINTVLPLVPQIGMMYLFLSFLEDSGYMARAAFVMDRLMQALGLPGKSFVPLIVGFGCNVPSVMGARTLDAPRERLMTIMMAPFMSCGARLAIFAVFAAAFFGQNGALAVFSLYMLGIVMAVLTGLMLKYTIMRGEATPFVMELPVYHVPHVKSLIIQTWQRLKGFVLRAGKVIIIVSIFLSAFNSFSLSGKIVDNINDSALASVSRVITPVFKPIGVHEDNWQATVGLFTGAMAKEVVVGTLNTLYTAENIQDEEFNPAEFNLGEELFSAIDETWQSLKDTFSLSVLMNPIEASKGDGEMGTGAMGVMDQKFGSAAAAYSYLIFVLLYVPCISVMGAIARESSRGWMGFSILWGLNIAYSLATLFYQVASYSQHPTYSLVCILAVILFNIVVIGLLRRARSRVDIELLATRKSVSSCCAASTTGDCH | 0.616 | 0.941 ± 0.47 | 0.812 ± 0.12 | 0.749 | 1.58 ± 0.19 | 0.841 | 4.22 | – | – | – | – | –
2 | MKKLTVAALAVTTLLSGSAFAHEAGEFFMRAGSATVRPTEGAGGTLGSLGGFSVTNNTQLGLTFTYMATDNIGVELLAATPFRHKIGTRATGDIATVHHLPPTLMAQWYFGDASSKFRPYVGAGINYTTFFDNGFNDHGKEAGLSDLSLKDSWGAAGQVGVDYLINRDWLVNMSVWYMDIDTTANYKLGGAQQHDSVRLDPWVFMFSAGYRF [P0A915] | 6.45 ± 0.39 | 6.21 ± 1.9 | 3.53 ± 0.14 | 7.52 ± 0.61 | 12.6 ± 1.5 | 7.26 | 15.44 ± 0.068 | 6.65 ± 0.21 | > 16 | 6.15 | – | –
3 | MKKLVLSLSLVLAFSSATAAFAAIPQNIRIGTDPTYAPFESKNSQGELVGFDIDLAKELCKRINTQCTFVENPLDALIPSLKAKKIDAIMSSLSITEKRQQEIAFTDKLYAADSRLVVAKNSDIQPTVESLKGKRVGVLQGTTQETFGNEHWAPKGIEIVSYQGQDNIYSDLTAGRIDAAFQDEVAASEGFLKQPVGKDYKFGGPSVKDEKLFGVGTGMGLRKEDNELREALNKAFAEMRADGTYEKLAKKYFDFDVYGG [P0AEU0] | 6.1 ± 0.068 | 5.88 ± 0.91 | 3.08 ± 0.17 | 6.45 ± 1 | 13.1 ± 0.17 | 5.8 ± 0.59 | 14.3 ± 0.77 | – | 13.9 ± 0.36 | 6.2 ± 0.54 | 5.99 ± 0.12 | 6.35 ± 0.24
4 | MKKPLRQQNRQIISYVPRTEPAPPEHAIKMDSFRDVWMLRGKYVAFVLMGESFLRSPAFTVPESAQRWANQIRQEGEVTE [P0AE60] | 3.87 | – | – | – | – | 3.66 | 9.35 | – | 6.6 | 4.26 ± 1.1 | 5.19 | –
5 | MKKQRNLRSMAAQAVEQVVEQGQSLSNILPPLQQKVSDKDKALLQELCFGVLRTLSQLDWLINKLMARPMTGKQRTVHYLIMVGLYQLLYTRIPPHAALAETVEGAIAIKRPQLKGLINGVLRQFQRQQEELLAEFNASDARYLHPSWLLKRLQKAYPEQWQSIVEANNQRPPMWLRINRTHHSRDSWLALLDEAGMKGFPHADYPDAVRLETPAPVHALPGFEDGWVTVQDASAQGCMTWLAPQNGEHILDLCAAPGGKTTHILEVAPEAQVVAVDIDEQRLSRVYDNLKRLGMKATVKQGDGRYPSQWCGEQQFDRILLDAPCSATGVIRRHPDIKWLRRDRDIPELAQLQSEILDAIWPHLKTGGTLVYATCSVLPEENSLQIKAFLQRTADAELCETGTPEQPGKQNLPGAEEGDGFFYAKLIKK | 5.05 ± 1.1 | 4.92 ± 0.25 | 2.88 ± 0.45 | 6.66 ± 1.9 | 12.4 ± 0.73 | 6.14 ± 0.58 | 12.7 ± 0.89 | 5.88 ± 1 | 10.9 ± 0.76 | 6.96 ± 0.51 | 5.642 ± 0.039 | 5.17 ± 0.74
